Experiments:
[1] = biological target: T1, mouse PDGFR-hIgG1-Fc chimeric fusion protein (mouse; human, UniProt P05622 32-530, limits assumed); assay: SPR (Biacore T100), mouse PDGFR-hIgG1-Fc captured by anti-hIgG1 Fc, 1:1 fit
T1 construct: also called mouse PDGFRβ; mouse PDFGR; not shown: human IgG1 Fc
T1 sequence (looked up): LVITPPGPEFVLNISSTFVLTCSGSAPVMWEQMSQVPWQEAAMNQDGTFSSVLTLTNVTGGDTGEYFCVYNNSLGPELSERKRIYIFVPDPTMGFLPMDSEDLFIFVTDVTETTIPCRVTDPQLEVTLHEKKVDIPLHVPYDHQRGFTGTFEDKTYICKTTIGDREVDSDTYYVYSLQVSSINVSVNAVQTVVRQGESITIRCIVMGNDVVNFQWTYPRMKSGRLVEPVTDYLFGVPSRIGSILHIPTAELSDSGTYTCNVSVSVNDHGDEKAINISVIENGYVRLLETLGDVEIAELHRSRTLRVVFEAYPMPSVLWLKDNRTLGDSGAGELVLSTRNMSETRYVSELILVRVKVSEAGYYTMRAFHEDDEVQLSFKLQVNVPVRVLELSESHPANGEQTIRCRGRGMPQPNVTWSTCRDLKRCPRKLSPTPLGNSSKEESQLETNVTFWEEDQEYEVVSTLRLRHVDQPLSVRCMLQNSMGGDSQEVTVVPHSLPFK
Procedure: (§1) The R4 framework shuffled human and mouse PDGFRβ enriched VH domain pool selected in Example 2 was cloned into E. coli expression vectors, produced and purified. The binding kinetics of the VH domains to human and mouse PDFGR was determined using surface plasmon resonance on a Biacore T100. Briefly, human and mouse PDGFR-hIgG1-Fc chimeric fusion protein were separately immobilized using a Series CM5 sensorchip (CM5) coupled to anti-hIgG1 Fc monoclonal antibody. For each cycle, the PDGFR fusion protein was first captured, followed by the injection of VH for 115 seconds at a flow rate of 100 uL/min (association). Immediately following the association phase is a dissociation phase of 600 seconds. The surface was regenerated at each cycle with a single injection of 3M MgCl2 (10 uL/min, 60 seconds). Multiple concentrations of VH domain were injected (0.55 nM-40 nM) and the resulting sensorgram were analyzed with T100 Evaluation software. The binding kinetics was determined using 1:1 binding curve fitting.

[2] = biological target: T2, human PDGFR-hIgG1-Fc chimeric fusion protein (human, UniProt P09619 33-530); assay: SPR (Biacore T100), human PDGFR-hIgG1-Fc captured by anti-hIgG1 Fc, 1:1 fit
T2 construct: For the IgG assay it was captured by an anti-6His antibody, which points to a His tag; also called recombinant human PDGFR-hIgG1-Fc chimeric fusion protein (R&D, #385-PR-100/CF); human PDGFRβ; not shown: human IgG1 Fc
Procedure: as §1

[3] = biological target: T2, human PDGFR-hIgG1-Fc chimeric fusion …; assay: SPR (Biacore T100), PDGFR-Fc captured by anti-hIgG1 Fc, VH injected, 1:1 fit
Procedure: as §1

[4] = biological target: T2, human PDGFR-hIgG1-Fc chimeric fusion …; assay: SPR (Biacore T100), human PDGFR-hIgG1-Fc captured by anti-hIgG1 Fc, 1:1 fit; the text prints it rounded as 93 pM
Procedure: as §1

[5] = biological target: T2, human PDGFR-hIgG1-Fc chimeric fusion …; assay: SPR competition (Biacore T100): captured PDGFR-Fc, VH 0.46-60 nM, then 10 nM PDGFBB
Procedure: Briefly, human PDGFR-hIgG1-Fc chimeric fusion protein was immobilized using a Series CM5 sensorchip coupled with anti-hIgG1 Fc monoclonal antibody. […] For each successive cycle, the PDGFR fusion protein was first captured then VH domain was then injected for 120 seconds. […] The surface was regenerated at each cycle with a single injection of 3M MgCl2 (10 uL/min, 60 seconds).

human PDGFRβ [6] = biological target: T3, human PDGFRβ (human, UniProt P09619 33-530, limits assumed); assay: solution equilibrium binding: 35S-Met labelled in vitro translated protein, human PDGFRβ titrated (0 to 20 nM), capture on protein A beads, scintillation counts
T3 construct: also called hPDGFRβ; recombinant human PDGFRβ
Procedure: The affinity of several scFvs was determined by solution based equilibrium binding assay. Specifically, 120 pmol of scFv RNA was translated into free protein with ³⁵S Met incorporated. The translated reaction mixture was 3-fold diluted in binding buffer containing 1×PBS with 0.025% triton, 1 mg/mL BSA and 0.1 mg/mL sssDNA. […] The diluted scFv mixture was incubated with hPDGFRβ in final volume of 100 ul on Kingfisher plates (Thermofisher Scientific, 97002084). Following incubation, 25 ul of protein A magnetic beads (Invitrogen) were used to capture the PDGFRβ from solution. The captured PDGFRβ was washed and eluted in kingfisher Reader (Thermofisher Scientific). The amount of scFv (labeled with ³⁵S Met) bound to the magnetic bead-immobilized hPDGFRβ was counted using a scintillation counter and the Kd was calculated with Graph Pad Prism 5.

[7] = biological target: T2, human PDGFR-hIgG1-Fc chimeric fusion …; assay: SPR (Biacore T100), PDGFR-Fc captured by anti-hIgG1 Fc, 1:1 model
Procedure: IgG1 to human PDFGR were determined using surface plasmon resonance on a Biacore T100. Briefly, recombinant human PDGFR-hIgG1-Fc chimeric fusion protein (R&D, #385-PR-100/CF) was immobilized on a Series CM5 sensorchip coupled with anti-hIgG1 Fc monoclonal antibody (for the VH and ScFv assays) or anti-6His antibody (for the IgG assay). […] The data was analyzed using the Biacore T100 analysis software using a 1:1 model. Mass transport was checked and avoided to allow accurate measurements. All data was double referenced according to Biacore standard protocol.

human PDGFRβ [8] = biological target: T3, human PDGFRβ; assay: ELISA: plate coated with 2 ug/mL human PDGFRβ or human IgG, crude scFv lysate, anti-flag-HRP, OD450
Procedure: A PDGFRβ binding ELISA assay was performed to assess the binding of the scFv to immobilized PDGFRβ and to determine the EC50. Specifically, 2 ug/mL of human PDGFRβ and human Fc or IgG in PBS was immobilized on Maxisorp plates at 4° C. overnight. The plate was then washed and blocked with superblock. In vitro translated crude scFv lysate was diluted 1:3 in 1×PBST. 100 ul of the diluted scFv lysate was loaded into each well of Maxisorp plates and incubated for 1 hour at room temperature. scFv that bound to immobilized PDGFRβ was detected by anti-flag antibody-HRP at 1:5000 dilution and a TMB substrate. The plate was read on a Molecular Device plate reader with end point assay at OD 450 nm.

[9] = biological target: T2, human PDGFR-hIgG1-Fc chimeric fusion …; assay: SPR (Biacore T100), PDGFR-hIgG1-Fc captured by anti-hIgG1 Fc, VH injected; series 0 to 120 in the legend box, unit inferred
mouse PDGFRβ = biological target: T4, mouse PDGFRβ (mouse, UniProt P05622 32-530, limits assumed); assay: 35S-Met labelled in vitro translated VH, binding to target
T4 sequence (looked up): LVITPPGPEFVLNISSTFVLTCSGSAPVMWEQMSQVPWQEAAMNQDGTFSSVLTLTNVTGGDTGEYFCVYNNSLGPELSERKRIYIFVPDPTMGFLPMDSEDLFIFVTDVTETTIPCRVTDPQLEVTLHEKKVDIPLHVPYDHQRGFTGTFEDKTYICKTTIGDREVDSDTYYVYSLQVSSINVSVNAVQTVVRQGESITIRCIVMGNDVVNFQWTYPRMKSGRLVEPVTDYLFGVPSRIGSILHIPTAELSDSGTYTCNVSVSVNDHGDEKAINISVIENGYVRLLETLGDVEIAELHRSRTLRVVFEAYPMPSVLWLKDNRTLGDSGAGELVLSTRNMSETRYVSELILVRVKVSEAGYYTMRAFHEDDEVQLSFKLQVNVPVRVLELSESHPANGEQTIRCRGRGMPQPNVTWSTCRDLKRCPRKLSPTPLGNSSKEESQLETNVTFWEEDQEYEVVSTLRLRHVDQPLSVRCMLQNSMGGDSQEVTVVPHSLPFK

human PDGFRβ [10] = biological target: T3, human PDGFRβ; assay: solution equilibrium binding: 35S-Met labelled in vitro translated protein, human PDGFRβ titrated, capture on protein A beads, scintillation counts
Procedure: The affinity of several scFvs was determined by solution based equilibrium binding assay. Specifically, 120 pmol of scFv RNA was translated into free protein with ³⁵S Met incorporated. The translated reaction mixture was 3-fold diluted in binding buffer containing 1×PBS with 0.025% triton, 1 mg/mL BSA and 0.1 mg/mL sssDNA. Human PDGFRβ was diluted in the same binding buffer to final concentrations from 100 nM to 0 nM. The diluted scFv mixture was incubated with hPDGFRβ in final volume of 100 ul on Kingfisher plates (Thermofisher Scientific, 97002084). Following incubation, 25 ul of protein A magnetic beads (Invitrogen) were used to capture the PDGFRβ from solution. The captured PDGFRβ was washed and eluted in kingfisher Reader (Thermofisher Scientific). The amount of scFv (labeled with ³⁵S Met) bound to the magnetic bead-immobilized hPDGFRβ was counted using a scintillation counter and the Kd was calculated with Graph Pad Prism 5.

T2 sequence (P09619 33-530 limits assumed, change not shown): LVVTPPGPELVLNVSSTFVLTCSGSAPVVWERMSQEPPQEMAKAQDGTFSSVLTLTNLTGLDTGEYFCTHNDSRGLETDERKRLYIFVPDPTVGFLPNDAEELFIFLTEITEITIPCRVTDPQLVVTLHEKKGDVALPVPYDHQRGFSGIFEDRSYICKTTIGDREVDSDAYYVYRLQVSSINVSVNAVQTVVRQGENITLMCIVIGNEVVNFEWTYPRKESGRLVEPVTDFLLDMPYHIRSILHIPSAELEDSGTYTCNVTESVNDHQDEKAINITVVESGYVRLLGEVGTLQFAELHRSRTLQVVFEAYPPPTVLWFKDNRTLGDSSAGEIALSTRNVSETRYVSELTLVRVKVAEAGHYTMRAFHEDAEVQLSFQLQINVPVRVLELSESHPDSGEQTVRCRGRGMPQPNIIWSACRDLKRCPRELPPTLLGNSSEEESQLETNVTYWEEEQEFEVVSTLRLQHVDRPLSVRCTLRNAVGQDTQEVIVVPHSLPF
T3 sequence (P09619 33-530 limits assumed): as the sequence (P09619 33-530 limits assumed, change not shown) above

B1: XB2708 VH domain (other)
VH: QVQLVQSGGGVVQPGGSLRLSCAASGFTSRSYGMHWVRQAPGKGLEWVAFILFDGNNKYYADSVKGRFTISSDNSKNTLYLQMNSLRAEDTAVYYCATHGGDRSYWGQGTLVTVSS
notes: Isolated (unpaired) human VH domain, framework-shuffled derivative of XB1511; produced in E. coli for SPR
- Kd [1]: 1080 pM
- koff [1]: 0.00692 s⁻¹
- kon [1]: 6.41e+06 M⁻¹ s⁻¹
- kon [2]: 9.94e+06 M⁻¹ s⁻¹
- Kd [3]: 93 pM
- koff [3]: 0.000927 s⁻¹
- Kd [4]: 93.3 pM

B2: XB2202 VH domain (other)
VH: QVQLVQSGAEVKKPGSSVRVSCKASGGTFSRHAISWVRQAPGQGLEWIGGILPILKTPNYAQRFQGRVTINADESTSTVYMEMSSLRSEDTAVYYCATHGGDRSYWGQGTLVTVSS
notes: as for B1
- Kd [1]: 925 pM
- koff [1]: 0.00289 s⁻¹
- kon [1]: 3.13e+06 M⁻¹ s⁻¹
- Kd [2]: 243 pM
- koff [2]: 0.00175 s⁻¹
- kon [2]: 7.19e+06 M⁻¹ s⁻¹
- IC50 [5]: < 5000 pM
- Kd (human PDGFRβ [6]): 234 pM
- Kd [7]: 227 pM
- koff [7]: 0.00295 s⁻¹
- kon [7]: 1.3e+07 M⁻¹ s⁻¹
- Kd [3]: 249 pM
- koff [3]: 0.00186 s⁻¹

B3: A5 (scFv, V domains shown)
VH: QVQLVQSGAEVKKPGSSVRVSCKASGGTFSRHAISWVRQAPGQGLEWIGGILPILKTPNYAQRFQGRVTINADESTSTVYMEMSSLRSEDTAVYYCATHGGDRSYWGQGTLVTVSS
VL: SYELTQPPSASASLGASVTLTCTVSSGYRSYEVDWFQQRPGKGPRFVMRVGTGGIVGSRGDGIPDRFSVWGSGLNRYLTIEDIQEEDESDYYCGADHGSGSNLVYVFGTGTKVTVL
notes: also called XB2202/A5 scFv
- binding result (human PDGFRβ [8]): no binding

B4: XB1511 VH domain (other)
VH: QVQLVQSGAEVKKPGSSVKVSCKASGGTFSSYAISWVRQAPGQGLEWMGGIIPIFGTANYAQKFQGRVTITADESTSTAYMELSSLRSEDTAVYYCAIHGGDRSYWGQGTLVTVSS
notes: Isolated (unpaired) human VH domain; also called clone A4; A4 XB1511
- Kd [9]: 14700 pM
- binding result (mouse PDGFRβ): no binding (tested: 100 nM)
- Kd (human PDGFRβ [10]): 31900 pM

Reference: US20130177572A1 (X BODY, published 2013)
